Entries after “also recorded” stand apart in the source; their conditions may differ. Where a SMILES comes first, the peptide text is derived from it. The star is where a group is joined. Cbz = O=C(OCc1ccccc1)*; CH2F = FC*
How the values were obtained:
B16 melanoma cells [1] = assay: Phototoxicity of TMRM compared with mitochondrial KillerRed in B16 melanoma cells; format: cell-based; conditions: 100 nM, 3.3 W/cm2 green light
Experimental: The phototoxicity of mitochondrial KillerRed was compared with the phototoxicity of tetramethylrhodamine (TMRM)—a red fluorescent dye capable of producing ROS which accumulates in mitochondria of living cells. B16 melanoma cells were preincubated with 100 nM TMRM for 20 min at 37° C. and irradiated by 3.3 W/cm2 green light (40× objective, 535-575 nm) for time periods of 10 sec, 1 min, 5 min, and longer. […] Irradiation for 1 min led to cell death within 30-40 min. The effect was similar to that obtained by 15-min irradiation of the KillerRed-expressing cells under the same conditions.

beta-gal [2] = assay: Inhibitory analysis with specific ROS quenchers in the in vitro beta-gal CALI system; format: biochemical, E. coli; conditions: superoxide dismutase 500 u/ml with catalase 500 u/ml; mannitol 67 mM; sodium azide 20 mM
Experimental: White and hatched columns show β-gal activity for the intact and irradiated samples, respectively.
The mechanism of the KillerRed-mediated effect was tested using inhibitory analysis. A specific ROS quenchers were added to the in vitro beta-gal CALI system described above (FIG. 6).

B16 melanoma cells [3] = assay: Light-induced killing of B16 melanoma cells expressing mitochondrially targeted KillerRed; format: cell-based; conditions: pre-incubated with 10 μM inhibitor, 1.5 hour post illumination
From the text: Mitochondrial localization of a photosensitizer is known to be effective in photodynamic therapy, leading preferentially to apoptotic cell death. To provide for a more pronounced phototoxic effect, KillerRed was targeted to mitochondria by cloning it in frame with a double N-terminal mitochondrial localization signal and the resulting construct was transiently transfected into B16 melanoma cells. Exposure of mitochondrially targeted KillerRed expressing B16 melanoma cells to green light for 15 minutes using lower irradiation intensity (40× objective, 535-575 nm excitation filter, 3.3 W/cm2) led to nearly 100% cell death within 45 min after irradiation (FIG. 8B). If pre-incubated with 10 μM pancaspase inhibitor zVAD-fmk, the cells survived identical irradiation and preserved their native shape within 1.5 hour post illumination. This indicates the apoptotic way of the mitochondrially targeted KillerRed-mediated cell death.

[4] = tested on: E. coli (XL1-Blue strain); assay: Screening of fluorescent and chromo-proteins for phototoxic effect in E. coli (CFU after white light); format: cell-based; conditions: for phototoxic effect: E. coli expressing the protein, white light 1 hour, CFU irradiated vs non-irradiated
From the text: Looking for a GFP-like protein, which could be used as an efficient photosensitizer, we screened different proteins for a phototoxic effect in E. coli including: • (1) Anemonia majano fluorescent protein AmCyan (also noted to as FP486, GenBank ID AF168421; Clontech); • (2) Zoanthus sp. fluorescent protein ZsGreen FP506 (also noted to as FP506, GenBank ID AF168422; Clontech); • (3) red fluorescent protein DsRed2 (Clontech); • (4) Anemonia sulcata GFP-like chromoprotein asulCP FP595 (also noted to as FP595, GenBank ID AF246709); • (5) asulCPW94F protein, a mutant of chromoprotein FP595 comprising W94F amino acid substitution; • (6) commercially available red fluorescent protein AsRed2 (Clontech); • (7) Dendronephthya sp. green fluorescent protein dendGFP (GenBank ID AF420591); • (8) Goniopora tenuidens GFP-like chromoprotein, gtenCP (GenBank ID AF383156); • (9) aceGFP (GenBank ID AY233272); • (10) circularly permutated aceGFP (GenBank ID AY233272) variant, cpT1 having nucleotide and amino acid sequences shown in SEQ ID NOS: 5, 6.; • (11) monomeric mutant of dendGFP protein, dendQ4mono, having nucleotide and amino acid sequences shown in SEQ ID NOS: 7, 8.; • (12) EGFP, the most popular Aequorea GFP mutant variant (GenBank ID U55763); • (13) chromoprotein am2CP(PCT/RU03/00474; SEQ ID NOS: 9, 10); • (14) red fluorescent protein KillerRed (JR18IC+)(SEQ ID NOS: 3, 4), developed on the basis of chromoprotein am2CP by random mutagenesis; and • (15) non-colored mutant of FP506 protein, ZsGreenY66A, containing mutation Y66A which eliminates the chromophore, was used as a negative control.
Synthetic genes encoding proteins listed above were cloned into the pQE30 vector and transformed into E. coli (XL1-Blue strain). For each protein tested, protein expressing cells were taken from one E. coli colony, diluted into 1 ml of PBS buffer and divided into two portions. One of them was irradiated with white light (light source Fiber-Light from Dolan-Jenner Industries, Inc) for 1 hour. Then both samples aliquots were sowed to the Petri dishes at different dilutions. The number of growing colonies corresponded to the number of bacteria cells surviving after irradiation (i.e. colony forming units, CFU). The CFU number for the irradiated E. coli portion was compared to non-irradiated one, thus allowing an estimate of the relative phototoxic effect for every of the proteins tested.
Comparing to the wild type chromoprotein anm2CP, KillerRed contains amino acid changes T145N and C161A (corresponding to positions 148 and 165 in Aequorea victoria GFP), which are spatially close to the chromophore and affect fluorescent properties, and a number of folding mutations. […]

293T human kidney cells = assay: Light-induced killing of 293T cells expressing KillerRed in cytoplasm; format: cell-based
From the text: For expression in eukaryotic cells, the PCR-amplified Agel-NotI fragments from pQE30 vectors encoding KillerRed and DsRed2 (obtained as described in the Example 1) were PCR amplified and inserted in lieu of the EGFP-coding region in the pEGFP-N1 vector (Clontech).
293T human kidney cells were transiently cotransfected with these vectors and the AcGFP1-C1 vector (Clontech) using Lipofectamine reagent (Invitrogen). The cells of interest were characterized with high expression levels of both green fluorescent protein AcGFP1 and KillerRed (or DsRed2 in a control experiment). Cells were irradiated with intense green light for 10 min (100× objective, 535-575 nm excitation filter, 5.8 W/cm2). Mortality of irradiated KillerRed expressing cells reached 40-60%, depending on protein concentration (FIG. 8A).
At the same time, neighboring cells with a lower KillerRed expression level survived irradiation, presumably due to the lower concentration of the phototoxic agent. […] A Leica confocal inverted microscope TCS SP2 equipped with 125 mW Ar and 1 mW HeNe lasers was used for cell imaging. A LaserCheck (Coherent) power meter was used to measure total power of the excitation light after the microscope objective.

beta-gal [5] = target: beta-gal (Escherichia coli, UniProt P00722, DEL12-42); conditions: beta-gal mixed with KillerRed (unfused), E. coli extracts
Experimental: O-nitrophenyl (ONP) absorption after 15 min o-nitrophenyl-D galactoside (ONPG) incubation is proportional to β-gal enzymatic activity.
Aliquots were either incubated under white light (1 W/cm2, light source Fiber-Light from Dolan-Jenner Industries, Inc) or kept in the dark. The entire volume of the tube was illuminated. Beta-gal activity was assayed in light-illuminated and “dark” aliquots calorimetrically.

[6] = target: T1, pleckstrin homology (PH) domain of phospholipase C delta-1 (PLC delta-1) (Homo sapiens, UniProt P51178); assay: KillerRed-mediated CALI of PH domain in mammalian cells (membrane to cytoplasm translocation); conditions: KillerRed expressed separately from the PH domain, in membrane or cytosol
T1 sequence (P51178 1-224): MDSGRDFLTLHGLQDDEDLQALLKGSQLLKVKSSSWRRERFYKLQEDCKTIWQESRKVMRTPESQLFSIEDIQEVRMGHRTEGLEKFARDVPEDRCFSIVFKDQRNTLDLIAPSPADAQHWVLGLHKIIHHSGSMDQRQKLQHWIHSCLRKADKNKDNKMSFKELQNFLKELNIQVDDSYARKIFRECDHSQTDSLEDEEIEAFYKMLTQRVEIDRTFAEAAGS
From the text: KillerRed-mediated CALI was further tested in mammalian cells (FIG. 7). The pleckstrin homology (PH) domain of phospholipase C delta-1 (PLC delta-1) was used as a model protein. The PH domain locates to the inner leaf of plasma membrane due to its high affinity for membrane phospholipids. It has been shown that in case of direct protein inactivation by dye-generated ROS, the PH domain will lose its membrane affinity and become evenly distributed throughout the cell volume.
A coding sequence for the first 224 amino acids of PLC delta-1 comprising the N-terminal PH-domain was amplified from Fetus Brain cDNA (Clontech) with specific PCR primers. […] Primers used comprised certain restriction sites that were used for following cloning of PCR products into pEGFP-Tub plasmid (Clontech) in frame with EGFP. As a result, a PH domain fusion with EGFP and triple fusions EGFP-PH-KillerRed and EGFP-PH-DsRed-Express operatively linked with CMV promoter were obtained.
The 293T cell-derived Phoenix Eco cell line was transiently transfected with these constructs. Intracellular localization of PLC delta-1 was evaluated using EGFP signal before and after CALI of the PH domain using confocal and fluorescence microscopy. Fluorescence was monitored using a Leica Confocal Microscope DM IRE2 TCS SP2. […]

E. coli = assay: Action spectrum of KillerRed phototoxic effect (green vs blue light); format: cell-based
From the text: FIG. 3 illustrates excitation (dotted line) and emission (solid line) spectra for KillerRed protein. Hatched and white rectangles show relative phototoxic effect from irradiation with blue (460-490 nm) and green (540-580 nm) light, respectively. Numbers above the rectangles represent the decrease in the number of viable cells after 10-min irradiation (folds).
Further we roughly checked the action spectrum for KillerRed phototoxic effect (FIG. 3).

[7] = tested on: E. coli (XL1-Blue strain); assay: Time course of survival of E. coli expressing fluorescent proteins under white light; format: cell-based
Experimental: To compare the KillerRed phototoxic effect with the effect of DsRed2 fluorescent protein, pQE30 vectors encoding KillerRed, DsRed2 or ZsGreenY66A non-colored protein were prepared as described in Example 1. E. coli (XL1-Blue strain) were transformed with said pQE30 vectors. The cells expressing ZsGreenY66A was used as a negative control. We estimated the percent of cells surviving after bacteria irradiation for 5, 10, 20, 40 and 60 minutes. […] The graph of FIG. 2 indicates the number of colonies, which grew without irradiation and after irradiation for the corresponding period of time.

beta-gal (Escherichia coli, UniProt P00722, DEL12-42), sequence (P00722 whole entry, stated change not applied, the tested form may be a part): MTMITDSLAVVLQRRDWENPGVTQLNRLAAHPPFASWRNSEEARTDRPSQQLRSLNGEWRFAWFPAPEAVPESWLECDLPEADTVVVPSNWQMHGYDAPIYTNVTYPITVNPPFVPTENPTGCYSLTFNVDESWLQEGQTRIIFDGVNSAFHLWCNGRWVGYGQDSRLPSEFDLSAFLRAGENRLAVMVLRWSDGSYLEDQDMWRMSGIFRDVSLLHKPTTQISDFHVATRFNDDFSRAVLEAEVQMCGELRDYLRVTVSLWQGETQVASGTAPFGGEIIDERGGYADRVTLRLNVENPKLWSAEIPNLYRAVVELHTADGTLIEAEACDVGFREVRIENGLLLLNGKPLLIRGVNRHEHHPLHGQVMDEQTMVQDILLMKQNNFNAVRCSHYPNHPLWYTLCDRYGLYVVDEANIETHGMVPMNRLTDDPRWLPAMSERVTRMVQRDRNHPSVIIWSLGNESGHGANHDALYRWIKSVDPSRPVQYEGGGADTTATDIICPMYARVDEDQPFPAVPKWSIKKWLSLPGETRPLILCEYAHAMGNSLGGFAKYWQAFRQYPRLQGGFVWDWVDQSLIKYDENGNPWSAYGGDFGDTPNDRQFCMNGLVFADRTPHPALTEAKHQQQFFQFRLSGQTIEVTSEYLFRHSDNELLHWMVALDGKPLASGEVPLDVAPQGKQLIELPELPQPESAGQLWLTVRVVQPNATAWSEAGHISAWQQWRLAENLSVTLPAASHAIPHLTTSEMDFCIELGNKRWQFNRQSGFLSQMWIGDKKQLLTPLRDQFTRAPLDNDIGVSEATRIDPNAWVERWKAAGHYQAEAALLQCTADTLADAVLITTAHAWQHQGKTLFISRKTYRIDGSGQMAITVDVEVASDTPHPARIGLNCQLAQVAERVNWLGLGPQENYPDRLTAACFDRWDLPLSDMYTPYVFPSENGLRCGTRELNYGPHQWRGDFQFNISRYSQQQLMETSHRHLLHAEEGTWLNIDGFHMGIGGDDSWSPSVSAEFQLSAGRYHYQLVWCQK
beta-gal (Escherichia coli, UniProt P00722, DEL12-42), sequence (P00722 with tags, fused parts or gaps DEL12-42): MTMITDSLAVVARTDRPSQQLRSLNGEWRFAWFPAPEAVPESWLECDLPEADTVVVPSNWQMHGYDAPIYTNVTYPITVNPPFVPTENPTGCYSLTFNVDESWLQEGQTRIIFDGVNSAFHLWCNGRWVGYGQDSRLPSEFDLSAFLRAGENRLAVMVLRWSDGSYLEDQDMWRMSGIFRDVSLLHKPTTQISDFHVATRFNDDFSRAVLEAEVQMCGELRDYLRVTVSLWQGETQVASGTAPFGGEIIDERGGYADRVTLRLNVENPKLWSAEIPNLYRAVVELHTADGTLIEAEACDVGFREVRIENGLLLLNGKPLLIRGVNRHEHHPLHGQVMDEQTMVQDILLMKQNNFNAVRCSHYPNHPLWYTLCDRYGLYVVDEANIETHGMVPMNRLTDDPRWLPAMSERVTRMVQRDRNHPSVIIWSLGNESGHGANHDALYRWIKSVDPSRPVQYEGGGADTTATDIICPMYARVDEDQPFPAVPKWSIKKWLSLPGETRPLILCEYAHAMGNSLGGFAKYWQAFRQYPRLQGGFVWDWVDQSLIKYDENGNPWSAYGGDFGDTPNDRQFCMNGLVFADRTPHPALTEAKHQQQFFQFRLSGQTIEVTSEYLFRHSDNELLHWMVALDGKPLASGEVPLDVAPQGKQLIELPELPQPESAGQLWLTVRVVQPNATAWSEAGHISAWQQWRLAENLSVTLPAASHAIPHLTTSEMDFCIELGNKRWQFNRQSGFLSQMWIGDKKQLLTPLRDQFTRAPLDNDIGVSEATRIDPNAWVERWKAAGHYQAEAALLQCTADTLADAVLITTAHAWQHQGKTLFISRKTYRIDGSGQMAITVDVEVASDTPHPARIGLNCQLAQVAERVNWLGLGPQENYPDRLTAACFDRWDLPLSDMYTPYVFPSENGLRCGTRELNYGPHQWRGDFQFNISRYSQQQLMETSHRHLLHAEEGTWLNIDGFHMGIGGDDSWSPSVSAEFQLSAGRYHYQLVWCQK

`CN(C)c1ccc2c(-c3ccccc3C(=O)[O-])c3ccc(N(C)C)cc3[o+]c2c1` [TMRM, tetramethylrhodamine] was tested, and the cell death (B16 melanoma cells [1]; irradiation for 10 sec, within 1.5 h interval) was “didn't lead to TMRM-loaded cells' death”, the “time to cell death” value (B16 melanoma cells [1]; irradiation for 1 min) was 30 to 40 min and the cell death (B16 melanoma cells [1]; irradiation for 5 minutes or longer) was “immediate cell death”.

superoxide dismutase was tested, and the “effect of quencher on CALI of beta-gal” value (beta-gal [2]) was “impeded CALI slightly”.

`COC(=O)C[C@H](NC(=O)[C@H](C)NC(=O)[C@@H](NC(=O)OCc1ccccc1)C(C)C)C(=O)CF` [zVAD-fmk] (Cbz-Val-Ala-Asp(OMe)-CH2F) was tested, and the “cell survival after identical irradiation” value (B16 melanoma cells [3]) was “survived”.

B1: S3-2 (protein)
chain: EGGPALFQSDMTFKIFIDGVVNGQKFTIVADGSSKFPHGDFNVHAVCETGKLPMSWKPICHLIQYGEPFFARYPNGISHFAQECFPEGLSIDRTVRFENDGTMTSHHTYELDGTCVVSRITVNCDGFQPDGPIMRDQLVDILPNETHMFPHGPNAVRQLAFIGFTTADGGLMMSHFDSKMTFNGSRAIKIPGPHFVTTITKQMKDTSDKRDHVCQREVTYAHSVPRITSAI
modifications: amino acid sequence for the red fluorescent protein S3-2
For B1, the phototoxic effect [4] was “phototoxic”.

B2: KillerRed: red fluorescent protein (SEQ ID NO: 4), developed from chromoprotein anm2CP by random mutagenesis; genetically encoded photosensitizer (protein)
chain: EGGPALFQSDMTFKIFIDGEVNGQKFTIVADGSSKFPHGDFNVHAVCETGKLPMSWKPICHLIQYGEPFFARYPNGISHFAQECFPEGLSIDRTVRFENDGTMTSHHTYELDDTCVVSRITVNCDGFQPDGPIMRDQLVDILPNETHMFPHGPDAVRQLAFIGFTTADGGLMMGHFDSKMTFNGSRAIEIPGPHFVTIITKQMRDTSDKRDHVCQREVAYAHSVPRITSAIGSDED
modifications: amino acid sequence for the red fluorescent protein JR18IC+
notes: genetically encoded photosensitizer
In the case of B2, the “Mortality of irradiated cells” value (293T human kidney cells; green light 10 min, 535-575 nm, 5.8 W/cm2, depending on protein concentration) is reported as 40-60%, the “fate of irradiated cell” value (293T human kidney cells; highly expressing cell, post irradiation with green light 10 min) is reported as “disintegrated within an hour and a half” and the “effect of irradiation on enzyme activity” value (beta-gal [5]) is reported as “no effect”. For the same molecule, the “CALI of the PH domain” value [6] was “no detectable CALI”, the cell killing effect (E. coli; blue light irradiation (FITC filter set)) was “weak effect” and the cell killing effect (E. coli; green light irradiation (TRITC filter set)) was “strong cell killing effect”. For the same molecule, the phototoxic effect [4] was “striking phototoxic effect; also recorded: most strongly expressed”, the bacteria killed ([4]; after 1 hour irradiation with white light) was 99.95% and the cells killed ([7]; after 10 minutes of irradiation with white light) was 96%. It also gave a cells killed ([7]; after 20 minutes of irradiation with white light) of ~100%.

B3: anm2CP: wild type Anthomedusae chromoprotein (SEQ ID NOs: 9 and 10) (protein)
chain: MEGGPALFQSDMTFKIFIDGVVNDQKFTIIADGSSKFPHGDFNVHAVCETGKLPMSWKPICHLIQYGEPFFAKYPNGISHFAQECFPEGLTIDRTVRFENDGTMTSHHTYELDGTCVISRITVNCDGFQPDGPIMKDQLVDILPTETHMFPHGSNAVRQLCYIGFTTADGGLMMSHFDSKLTFNGSRAIKIPGPHFVTVIIKQMKDTSDKRDHVCQREVTYAHSVPRITSAI
modifications: hydromedusa 2 from sub-order Anthomedusae
In the case of B3, the phototoxic effect [4] is reported as “not phototoxic”.

— patent publication US20080153161A1, “Genetically Encoded Photosensitizers and Methods for Using Same” (priority 2005, published 2008)
